Results published in patent publication US20140242080A1 (Hoffmann-La Roche, published 2014).
Substitutions are numbered along the chain they refer to.

T1: human CEA expressed on tumor cells (LS-174T, A549-huCEA, MKN-45, MC38-huCEA, HPAFII, BxPC-3, ASPC-1) (human, UniProt P06731 35-685)
T1 sequence (looked up): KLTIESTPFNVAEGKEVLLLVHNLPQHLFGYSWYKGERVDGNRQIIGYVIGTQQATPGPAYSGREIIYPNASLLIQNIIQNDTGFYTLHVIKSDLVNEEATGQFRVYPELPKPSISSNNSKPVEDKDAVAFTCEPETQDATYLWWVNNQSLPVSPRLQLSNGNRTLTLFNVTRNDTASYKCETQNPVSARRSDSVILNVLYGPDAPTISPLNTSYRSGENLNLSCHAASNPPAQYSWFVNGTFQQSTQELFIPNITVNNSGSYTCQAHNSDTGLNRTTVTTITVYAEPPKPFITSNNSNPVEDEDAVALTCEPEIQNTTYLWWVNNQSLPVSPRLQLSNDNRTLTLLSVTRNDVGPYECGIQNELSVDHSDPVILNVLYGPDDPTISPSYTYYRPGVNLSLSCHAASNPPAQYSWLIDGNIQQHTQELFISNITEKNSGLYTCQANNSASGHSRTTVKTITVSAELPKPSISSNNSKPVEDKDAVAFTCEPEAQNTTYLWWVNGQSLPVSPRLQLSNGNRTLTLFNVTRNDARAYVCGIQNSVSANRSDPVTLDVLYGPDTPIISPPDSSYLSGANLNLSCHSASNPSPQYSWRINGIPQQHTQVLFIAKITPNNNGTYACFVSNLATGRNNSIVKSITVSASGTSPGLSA

T2: hu-MCSP(D3 domain)-avi-his (human, UniProt Q6UVK1 1582-2224)
T2 construct: Recombinant D3 domain with avi and his tags; also called human MCSP(D3 domain)-avi-his; Human MCSP D3
T2 sequence: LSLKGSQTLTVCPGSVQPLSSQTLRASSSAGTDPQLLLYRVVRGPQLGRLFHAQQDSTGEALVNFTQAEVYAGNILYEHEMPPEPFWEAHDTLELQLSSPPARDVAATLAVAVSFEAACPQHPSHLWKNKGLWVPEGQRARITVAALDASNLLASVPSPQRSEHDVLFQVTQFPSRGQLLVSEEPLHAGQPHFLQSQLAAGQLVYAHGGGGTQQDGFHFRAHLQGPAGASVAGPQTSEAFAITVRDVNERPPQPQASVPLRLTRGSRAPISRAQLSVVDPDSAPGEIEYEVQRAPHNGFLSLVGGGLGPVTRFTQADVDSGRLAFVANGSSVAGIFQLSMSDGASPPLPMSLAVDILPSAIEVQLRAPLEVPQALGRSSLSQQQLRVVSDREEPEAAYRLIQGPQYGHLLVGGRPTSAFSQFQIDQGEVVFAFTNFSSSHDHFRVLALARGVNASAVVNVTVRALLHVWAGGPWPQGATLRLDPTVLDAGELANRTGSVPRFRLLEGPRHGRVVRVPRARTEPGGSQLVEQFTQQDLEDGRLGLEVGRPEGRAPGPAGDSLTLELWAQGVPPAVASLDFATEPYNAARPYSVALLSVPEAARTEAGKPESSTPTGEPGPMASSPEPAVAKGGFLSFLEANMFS

B1: 1 + 1 IgG-Crossfab light chain fusion (CH1A1A/V9) (anti-CEA/anti-huCD3) (bispecific antibody)
chain 1: DIQMTQSPSSLSASVGDRVTITCRASQDIRNYLNWYQQKPGKAPKLLIYYTSRLESGVPSRFSGSGSGTDYTLTISSLQPEDFATYYCQQGNTLPWTFGQGTKVEIKSSASTKGPSVFPLAPSSKSTSGGTAALGCLVKDYFPEPVTVSWNSGALTSGVHTFPAVLQSSGLYSLSSVVTVPSSSLGTQTYICNVNHKPSNTKVDKKVEPKSC
chain 2: DIQMTQSPSSLSASVGDRVTITCKASAAVGTYVAWYQQKPGKAPKLLIYSASYRKRGVPSRFSGSGSGTDFTLTISSLQPEDFATYYCHQYYTYPLFTFGQGTKLEIKRTVAAPSVFIFPPSDEQLKSGTASVVCLLNNFYPREAKVQWKVDNALQSGNSQESVTEQDSKDSTYSLSSTLTLSKADYEKHKVYACEVTHQGLSSPVTKSFNRGECGGGGSGGGGSGGGGSGGGGSEVQLVESGGGLVQPGGSLRLSCAASGYSFTGYTMNWVRQAPGKGLEWVALINPYKGVSTYNQKFKDRFTISVDKSKNTAYLQMNSLRAEDTAVYYCARSGYYGDSDWYFDVWGQGTLVTVSSASVAAPSVFIFPPSDEQLKSGTASVVCLLNNFYPREAKVQWKVDNALQSGNSQESVTEQDSKDSTYSLSSTLTLSKADYEKHKVYACEVTHQGLSSPVTKSFNRGEC
chain 3: not shown
chain 4: DKTHTCPPCPAPEAAGGPSVFLFPPKPKDTLMISRTPEVTCVVVDVSHEDPEVKFNWYVDGVEVHNAKTKPREEQYNSTYRVVSVLTVLHQDWLNGKEYKCKVSNKALGAPIEKTISKAKGQPREPQVCTLPPSRDELTKNQVSLSCAVKGFYPSDIAVEWESNGQPENNYKTTPPVLDSDGSFFLVSKLTVDKSRWQQGNVFSCSVMHEALHNHYTQKSLSLSPGK
notes: also called “1+1 IgG Crossfab light chain (LC) fusion”
B2: 2 + 1 IgG Crossfab; CL/CH1 exchange (M4-3 ML2/V9) (anti-MCSP/anti-huCD3) (bispecific antibody)
chain 1: B1 chain 1
chain 2: not shown
chain 3: QVQLQESGPGLVKPSQTLSLTCTVSGGSITSGYYWNWIRQHPGKGLEWIGYITYDGSNNYNPSLKSRVTISRDTSKNQFSLKLSSVTAADTAVYYCADFDYWGQGTLVTVSSASTKGPSVFPLAPSSKSTSGGTAALGCLVKDYFPEPVTVSWNSGALTSGVHTFPAVLQSSGLYSLSSVVTVPSSSLGTQTYICNVNHKPSNTKVDKKVEPKSCDKTHTCPPCPAPEAAGGPSVFLFPPKPKDTLMISRTPEVTCVVVDVSHEDPEVKFNWYVDGVEVHNAKTKPREEQYNSTYRVVSVLTVLHQDWLNGKEYKCKVSNKALGAPIEKTISKAKGQPREPQVCTLPPSRDELTKNQVSLSCAVKGFYPSDIAVEWESNGQPENNYKTTPPVLDSDGSFFLVSKLTVDKSRWQQGNVFSCSVMHEALHNHYTQKSLSLSPGK
chain 4: not shown
B3: Parental M4-3/ML2 Fab (Fab, V domains shown)
VH: QVQLQESGPGLVKPSQTLSLTCTVSGGSITSGYYWNWIRQHPGKGLEWIGYITYDGSNNYNPSLKSRVTISRDTSKNQFSLKLSSVTAADTAVYYCADFDYWGQGTLVTVSS
VL: DIQMTQSPSSLSASVGDRVTITCRASQGIRNYLNWYQQKPGKAPKLLIYYTSSLHSGVPSRFSGSGSGTDFTLTISSLQPEDFATYYCQQYSKLPWTFGQGTKVEIK
notes: Soluble Fab with Flag tag, bacterial supernatant or purified; also called non-matured parental clone
B4: M4-3(C1)/ML2 Fab (Fab, V domains shown)
VH: B3 VH with Y54F
VL: B3 VL
notes: Soluble Fab with Flag tag
B5: M4-3(D6)/ML2 Fab (Fab, V domains shown)
VH: B3 VH with Y54F, S57K
VL: B3 VL
notes: Soluble Fab with Flag tag
B6: M4-3/ML2(C5) Fab (Fab, V domains shown)
VH: B3 VH
VL: B3 VL with Q27R, N31E, S52G, K93E
notes: Soluble Fab with Flag tag
B7: M4-3(B8)/ML2 Fab (Fab, V domains shown)
VH: B3 VH with Y54F, S57R
VL: B3 VL
notes: Soluble Fab with Flag tag
B8: M4-3/ML2(E10) Fab (Fab, V domains shown)
VH: B3 VH
VL: B3 VL with Q27Y, N31G, Y87H
notes: Soluble Fab with Flag tag
B9: M4-3/ML2(G3) Fab (Fab, V domains shown)
VH: B3 VH
VL: B3 VL with F71Y, K93A
notes: Soluble Fab with Flag tag
B10: M4-3(A7)/ML2 Fab (Fab, V domains shown)
VH: B3 VH with S31D, Y54F, S57R
VL: B3 VL
notes: Soluble Fab with Flag tag
B11: 2 + 1 IgG Crossfab; VL/VH exchange (M4-3 ML2/V9) (anti-MCSP/anti-huCD3) (bispecific antibody)
chain 1: EVQLVESGGGLVQPGGSLRLSCAASGYSFTGYTMNWVRQAPGKGLEWVALINPYKGVSTYNQKFKDRFTISVDKSKNTAYLQMNSLRAEDTAVYYCARSGYYGDSDWYFDVWGQGTLVTVSSASVAAPSVFIFPPSDEQLKSGTASVVCLLNNFYPREAKVQWKVDNALQSGNSQESVTEQDSKDSTYSLSSTLTLSKADYEKHKVYACEVTHQGLSSPVTKSFNRGEC
chain 2: not shown
chain 3: not shown
chain 4: B2 chain 3

Columns and labels:
[1] = biological target: T3, human CD3 expressed on Jurkat cells (human, UniProt P07766 23-207); assay: flow cytometry on Jurkat cells
T3 construct: CD3 complex on Jurkat T cells; also called CD3 on Jurkat cells; huCD3
T3 sequence (P07766 23-207 limits assumed): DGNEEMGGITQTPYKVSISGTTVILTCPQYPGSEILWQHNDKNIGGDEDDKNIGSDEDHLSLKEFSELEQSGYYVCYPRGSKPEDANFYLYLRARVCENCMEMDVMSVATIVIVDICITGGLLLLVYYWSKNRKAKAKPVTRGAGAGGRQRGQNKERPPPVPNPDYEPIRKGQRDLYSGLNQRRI
Description: Binding of the different bispecific constructs to CD3 on Jurkat cells (ATCC #TIB-152), and the respective tumor antigen on target cells, was determined by FACS. Briefly, cells were harvested, counted and checked for viability. 0.15-0.2 million cells per well (in PBS containing 0.1% BSA; 90 μl) were plated in a round-bottom 96-well plate and incubated with the indicated concentration of the bispecific constructs and corresponding IgG controls (10 μl) for 30 min at 4° C. […] After the incubation, cells were centrifuged (5 min, 350×g), washed with 150 μl PBS containing 0.1% BSA, resuspended and incubated for further 30 min at 4° C. with 12 μl/well of a FITC- or PE-conjugated secondary antibody. Bound constructs were detected using a FACSCantoII (Software FACS Diva). The “(scFv)₂” molecule was detected using a FITC-conjugated anti-His antibody (Lucerna, #RHIS-45F-Z). For all other molecules, a FITC- or PE-conjugated AffiniPure F(ab′)2 Fragment goat anti-human IgG Fcγ Fragment Specific (Jackson Immuno Research Lab #109-096-098/working solution 1:20, or #109-116-170/working solution 1:80, respectively) was used. Cells were washed by addition of 120 μl/well PBS containing 0.1% BSA and centrifugation at 350×g for 5 min. A second washing step was performed with 150 μl/well PBS containing 0.1% BSA. […] EC50 values were calculated using the GraphPad Prism software.
As a control, the equivalent maximum concentration of the corresponding IgGs and the background staining due to the labeled 2ndary antibody (goat anti-human FITC-conjugated AffiniPure F(ab′)2 Fragment, FcγFragment-specific, Jackson Immuno Research Lab #109-096-098) were assessed as well.

[2] = biological target: T1, human CEA expressed on tumor cells …; assay: cell-based or functional assay
[3] = biological target: human MCSP expressed on tumor cells (Colo-38, WM266-4, A375, MV-3, HCT-116) (human, UniProt Q6UVK1 30-2322); assay: cell-based or functional assay
Chain of human MCSP expressed on tumor cells (Colo-38, WM266-4, A375, MV-3, HCT-116) (Q6UVK1 30-2322): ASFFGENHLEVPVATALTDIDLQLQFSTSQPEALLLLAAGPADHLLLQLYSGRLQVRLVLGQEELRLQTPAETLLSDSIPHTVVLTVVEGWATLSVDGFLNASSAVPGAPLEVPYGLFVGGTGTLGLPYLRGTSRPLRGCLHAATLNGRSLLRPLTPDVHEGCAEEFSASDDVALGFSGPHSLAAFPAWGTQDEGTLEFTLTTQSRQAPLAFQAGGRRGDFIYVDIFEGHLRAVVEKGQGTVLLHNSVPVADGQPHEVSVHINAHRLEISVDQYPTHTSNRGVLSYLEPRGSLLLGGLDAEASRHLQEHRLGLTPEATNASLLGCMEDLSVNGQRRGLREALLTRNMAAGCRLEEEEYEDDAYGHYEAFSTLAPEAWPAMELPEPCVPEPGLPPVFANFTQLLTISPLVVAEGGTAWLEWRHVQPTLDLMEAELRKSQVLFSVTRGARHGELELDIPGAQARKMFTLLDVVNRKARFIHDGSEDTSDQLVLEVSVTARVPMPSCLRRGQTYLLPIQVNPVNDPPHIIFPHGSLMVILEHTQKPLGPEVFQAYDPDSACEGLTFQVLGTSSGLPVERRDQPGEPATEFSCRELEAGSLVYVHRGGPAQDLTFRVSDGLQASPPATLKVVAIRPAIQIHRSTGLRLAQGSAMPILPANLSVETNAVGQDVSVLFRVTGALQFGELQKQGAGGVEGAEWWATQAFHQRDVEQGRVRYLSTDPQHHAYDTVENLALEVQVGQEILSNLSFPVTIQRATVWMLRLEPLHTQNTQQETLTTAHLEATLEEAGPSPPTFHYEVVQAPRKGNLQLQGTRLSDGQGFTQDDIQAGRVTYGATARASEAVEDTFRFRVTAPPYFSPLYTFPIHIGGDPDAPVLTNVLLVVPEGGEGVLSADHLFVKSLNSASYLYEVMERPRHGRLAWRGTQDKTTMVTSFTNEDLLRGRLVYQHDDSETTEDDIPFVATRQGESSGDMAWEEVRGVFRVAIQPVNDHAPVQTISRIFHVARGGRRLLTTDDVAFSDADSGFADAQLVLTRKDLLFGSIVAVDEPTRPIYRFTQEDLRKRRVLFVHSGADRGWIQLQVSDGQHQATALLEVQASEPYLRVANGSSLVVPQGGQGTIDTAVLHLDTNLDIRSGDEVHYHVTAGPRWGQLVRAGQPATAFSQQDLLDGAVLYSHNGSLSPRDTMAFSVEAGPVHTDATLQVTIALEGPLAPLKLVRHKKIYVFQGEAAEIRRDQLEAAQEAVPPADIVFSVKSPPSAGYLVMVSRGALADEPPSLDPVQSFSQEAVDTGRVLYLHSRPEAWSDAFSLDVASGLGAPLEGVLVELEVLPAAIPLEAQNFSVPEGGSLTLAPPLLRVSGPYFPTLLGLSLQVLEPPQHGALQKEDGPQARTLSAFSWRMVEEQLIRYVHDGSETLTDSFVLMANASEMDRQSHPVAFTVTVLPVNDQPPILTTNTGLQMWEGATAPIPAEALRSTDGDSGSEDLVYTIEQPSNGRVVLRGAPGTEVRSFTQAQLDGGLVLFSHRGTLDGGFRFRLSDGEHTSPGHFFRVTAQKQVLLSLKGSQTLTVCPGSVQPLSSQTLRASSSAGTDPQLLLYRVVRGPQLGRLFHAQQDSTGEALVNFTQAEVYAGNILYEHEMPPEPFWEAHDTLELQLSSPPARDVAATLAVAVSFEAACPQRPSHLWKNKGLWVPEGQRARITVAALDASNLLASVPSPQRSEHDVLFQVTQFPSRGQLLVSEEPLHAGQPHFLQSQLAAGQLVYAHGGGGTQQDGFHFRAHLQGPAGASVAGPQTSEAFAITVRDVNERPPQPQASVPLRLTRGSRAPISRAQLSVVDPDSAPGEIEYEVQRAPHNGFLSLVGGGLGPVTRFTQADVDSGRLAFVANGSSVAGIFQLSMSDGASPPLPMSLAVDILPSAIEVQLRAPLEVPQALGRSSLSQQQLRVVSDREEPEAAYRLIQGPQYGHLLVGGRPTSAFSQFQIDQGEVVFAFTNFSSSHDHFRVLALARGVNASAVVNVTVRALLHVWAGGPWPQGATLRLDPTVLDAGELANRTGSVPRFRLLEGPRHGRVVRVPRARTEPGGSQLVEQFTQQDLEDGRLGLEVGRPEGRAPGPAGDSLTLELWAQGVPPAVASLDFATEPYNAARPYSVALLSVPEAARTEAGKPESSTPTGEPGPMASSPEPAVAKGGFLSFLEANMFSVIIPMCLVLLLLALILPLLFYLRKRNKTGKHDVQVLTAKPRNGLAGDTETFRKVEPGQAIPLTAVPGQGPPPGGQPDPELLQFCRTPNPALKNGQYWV

[4] = biological target: T2, hu-MCSP(D3 domain)-avi-his; assay: SPR ProteOn XPR36, 25 C; Fab captured via anti-human F(ab')2, MCSP D3 as analyte
Description: Briefly, carboxymethylated dextran biosensor chips (CM5, GE Healthcare) were activated with N-ethyl-N′-(3-dimethylaminopropyl)-carbodiimide hydrochloride (EDC) and N-hydroxysuccinimide (NHS) according to the supplier's instructions. Anti-human F(ab′)2 fragment specific capture antibody was diluted with 10 mM sodium acetate, pH 5.0 at 50 μg/ml before injection at a flow rate of 10 μl/minute to achieve approximately up to 10.000 response units (RU) of coupled capture antibody. Following the injection of the capture antibody, 1 M ethanolamine is injected to block unreacted groups. For kinetics measurements, Fabs from bacterial supernatant or purified Fabs were injected at a flow rate of 10 μl/minute for 300 s and a dissociation of 300 s for capture baseline stabilization. […] The surface of the sensorchip was regenerated by injection of glycine pH 1.5 for 30 s at 90 μl/min followed by injection of NaOH for 20 s at the same flow rate. Association rates (kₒₙ) and dissociation rates (koff) were calculated using a simple one-to-one Langmuir binding model (ProteOn XPR36 Evaluation Software or Scrubber software (BioLogic)) by simultaneously fitting the association and dissociation sensorgrams. The equilibrium dissociation constant (KD) was calculated as the ratio koff/kₒₙ.

| Binder | Kd [4] [nM] | also measured |
| --- | --- | --- |
| B1 | – | binding result [1]: binds; EC50 of T cell-mediated killing (LDH release), LS-174T cells, human PBMCs E:T 10:1, 28 h [2]: 1.56 nM; EC50 of T cell-mediated killing (LDH release), MC38-huCEA cells, human PBMCs E:T 10:1, 24 h [2]: ~3.2 nM; EC50 of T cell-mediated killing (LDH release), MKN-45 cells, human PBMCs E:T 10:1, 28 h [2]: 0.213 nM |
| B2 | – | EC50 of T cell-mediated killing (LDH release), MV-3 cells, human PBMCs E:T 10:1, 27 h [3]: ~0.0117 nM; EC50 of T cell-mediated killing (LDH release), WM266-4 cells, human PBMCs E:T 10:1, 26 h [3]: 0.0129 nM |
| B3 | 5 | – |
| B4 | 0.6 | – |
| B5 | 2 | – |
| B6 | 0.7 | – |
| B7 | 0.3 | – |
| B8 | 0.7 | – |
| B9 | 0.4 | – |
| B10 | 0.02 | – |
| B11 | – | EC50 of T cell-mediated killing (LDH release), MV-3 cells, human PBMCs E:T 10:1, 27 h [3]: ~0.0822 nM; EC50 of T cell-mediated killing (LDH release), WM266-4 cells, human PBMCs E:T 10:1, 26 h [3]: 0.0168 nM |
